Assays:
[1] = target: CD37 (Leukocyte Antigen CD37, Tetraspanin-26) on cells (human) (UniProt P11049); test: FACS, 5 ug/mL biotinylated control antibody + streptavidin-PE, Daudi cells (Burkitt's); background control
[2] = target: CD37 (Leukocyte Antigen CD37, Tetraspanin-26) on cells (human) (UniProt P11049); test: FACS, 5 ug/mL biotinylated control antibody + streptavidin-PE, KG-1 cells (AML); filing calls it high isotype control background binding
[3] = target: CD37 (Leukocyte Antigen CD37, Tetraspanin-26) on cells (human) (UniProt P11049); test: FACS, 5 ug/mL biotinylated control antibody + streptavidin-PE, THP-1 cells (AML); background control
[4] = target: CD37 (Leukocyte Antigen CD37, Tetraspanin-26) on cells (human) (UniProt P11049); test: FACS, 5 ug/mL biotinylated control antibody + streptavidin-PE, HL-60 cells (AML); background control
[5] = target: CD37 (Leukocyte Antigen CD37, Tetraspanin-26) on cells (human) (UniProt P11049); test: FACS, 5 ug/mL biotinylated control antibody + streptavidin-PE, Mino XCL cells (MCL); background control
[6] = target: CD37 (Leukocyte Antigen CD37, Tetraspanin-26) on cells (human) (UniProt P11049); test: FACS, 5 ug/mL biotinylated control antibody + streptavidin-PE, Granta-519 cells (MCL); filing calls it high isotype control background binding
[7] = target: CD37 (Leukocyte Antigen CD37, Tetraspanin-26) on cells (human) (UniProt P11049); test: FACS, 5 ug/mL biotinylated control antibody + streptavidin-PE, Mino cells (MCL); background control
[8] = target: CD37 (Leukocyte Antigen CD37, Tetraspanin-26) on cells (human) (UniProt P11049); test: FACS, 5 ug/mL biotinylated control antibody + streptavidin-PE, Ramos RR XCL cells (Burkitt's); background control
[9] = target: CD37 (Leukocyte Antigen CD37, Tetraspanin-26) on cells (human) (UniProt P11049); test: FACS, 5 ug/mL biotinylated control antibody + streptavidin-PE, EoL-1 cells (AML); background control
[10] = target: CD37 (Leukocyte Antigen CD37, Tetraspanin-26) on cells (human) (UniProt P11049); test: FACS, 5 ug/mL biotinylated control antibody + streptavidin-PE, Ramos cells (Burkitt's); background control
[11] = target: CD37 (Leukocyte Antigen CD37, Tetraspanin-26) on cells (human) (UniProt P11049); test: FACS, 5 ug/mL biotinylated control antibody + streptavidin-PE, DOHH-2 cells (Follicular); background control
[12] = target: CD37 (Leukocyte Antigen CD37, Tetraspanin-26) on cells (human) (UniProt P11049); test: FACS, 5 ug/mL biotinylated control antibody + streptavidin-PE, RS4-11 cells (ALL); background control
[13] = target: CD37 (Leukocyte Antigen CD37, Tetraspanin-26) on cells (human) (UniProt P11049); test: FACS, 5 ug/mL biotinylated control antibody + streptavidin-PE, Raji cells (Burkitt's); background control
[14] = target: CD37 (Leukocyte Antigen CD37, Tetraspanin-26) on cells (human) (UniProt P11049); test: FACS, 5 ug/mL biotinylated control antibody + streptavidin-PE, REC-1 cells (MCL); background control
[15] = target: CD37 (Leukocyte Antigen CD37, Tetraspanin-26) on cells (human) (UniProt P11049); test: FACS, 5 ug/mL biotinylated control antibody + streptavidin-PE, MOLT-4 cells (ALL); background control
[16] = target: CD37 (Leukocyte Antigen CD37, Tetraspanin-26) on cells (human) (UniProt P11049); test: FACS, 5 ug/mL biotinylated control antibody + streptavidin-PE, WSU-DLCL-2 cells (DLBCL); background control
[17] = target: CD37 (Leukocyte Antigen CD37, Tetraspanin-26) on cells (human) (UniProt P11049); test: FACS, 5 ug/mL biotinylated control antibody + streptavidin-PE, JVM-3 cells (CLL); background control
[18] = target: CD37 (Leukocyte Antigen CD37, Tetraspanin-26) on cells (human) (UniProt P11049); test: FACS, 5 ug/mL biotinylated control antibody + streptavidin-PE, BDCM cells (AML); background control
[19] = target: CD37 (Leukocyte Antigen CD37, Tetraspanin-26) on cells (human) (UniProt P11049); test: FACS, 5 ug/mL biotinylated control antibody + streptavidin-PE, MOLM-13 cells (AML); background control
[20] = target: CD37 (Leukocyte Antigen CD37, Tetraspanin-26) on cells (human) (UniProt P11049); test: FACS, 5 ug/mL biotinylated control antibody + streptavidin-PE, Hel 92.1 cells (AML); filing calls it high isotype control background binding
[21] = target: CD37 (Leukocyte Antigen CD37, Tetraspanin-26) on cells (human) (UniProt P11049); test: FACS, 5 ug/mL biotinylated control antibody + streptavidin-PE, SU-DHL-4 cells (DLBCL); background control
[22] = target: CD37 (Leukocyte Antigen CD37, Tetraspanin-26) on cells (human) (UniProt P11049); test: FACS, 5 ug/mL biotinylated control antibody + streptavidin-PE, Kasumi-1 cells (AML); background control
[23] = target: CD37 (Leukocyte Antigen CD37, Tetraspanin-26) on cells (human) (UniProt P11049); test: FACS, 5 ug/mL biotinylated control antibody + streptavidin-PE, MV-4-11 cells (AML); background control

Sequence of CD37 (Leukocyte Antigen CD37, Tetraspanin-26) on cells (human) (P11049 whole entry): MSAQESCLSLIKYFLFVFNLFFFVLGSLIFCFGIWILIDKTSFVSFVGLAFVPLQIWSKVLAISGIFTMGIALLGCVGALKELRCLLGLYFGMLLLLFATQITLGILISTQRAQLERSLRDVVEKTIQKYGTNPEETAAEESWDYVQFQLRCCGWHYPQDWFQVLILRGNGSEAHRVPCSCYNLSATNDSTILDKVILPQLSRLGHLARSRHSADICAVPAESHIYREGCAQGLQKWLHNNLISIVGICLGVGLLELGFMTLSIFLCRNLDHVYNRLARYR

Geometric Mean (fluorescence) [1]: 2040
Geometric Mean (fluorescence) [2]: 8190
Geometric Mean (fluorescence) [3]: 324
Geometric Mean (fluorescence) [4]: 967
Geometric Mean (fluorescence) [5]: 200
Geometric Mean (fluorescence) [6]: 15400
Geometric Mean (fluorescence) [7]: 1480
Geometric Mean (fluorescence) [8]: 693
Geometric Mean (fluorescence) [9]: 189
Geometric Mean (fluorescence) [10]: 1150
Geometric Mean (fluorescence) [11]: 840
Geometric Mean (fluorescence) [12]: 155
Geometric Mean (fluorescence) [13]: 1760
Geometric Mean (fluorescence) [14]: 1010
Geometric Mean (fluorescence) [15]: 1310
Geometric Mean (fluorescence) [16]: 1200
Geometric Mean (fluorescence) [17]: 1930
Geometric Mean (fluorescence) [18]: 290
Geometric Mean (fluorescence) [19]: 240
Geometric Mean (fluorescence) [20]: 4220
Geometric Mean (fluorescence) [21]: 1050
Geometric Mean (fluorescence) [22]: 188
Geometric Mean (fluorescence) [23]: 247
Substance: Isotype matched control antibody (biotinylated)
